Experimental data published in article PMC4632033.

Molecular target: T1, XisR (YdaQ), rac excisionase (Escherichia coli K-12 (BW25113; MS match MG1655)) (UniProt P76057)
T1 sequence: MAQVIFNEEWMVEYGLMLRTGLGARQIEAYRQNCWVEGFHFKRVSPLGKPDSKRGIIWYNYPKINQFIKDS
Assay: EMSA
Details: LightShift Chemiluminescent EMSA kit protocol (binding buffer not stated), 25 C, 1 h; 0.5x TBE polyacrylamide gel; protein stored in 20 mM Tris-HCl, 500 mM …

Sequence | binding
AGATTTCTTATGCTGGGCGTTCCGGCATGACGCATACTCTTCTGATGCCATATAACGAATTGAGTCGCTTTTAAATGTCGCAAAATCAAGAAATTAGTAAGAAAGAACAATACAACCTGAACAAGTAAGGGCAAAAATCACAACTCTCTGACTCATAAGTATTTTACTTATTTTTCAATGTGTTAAATATCATCAGCGACAACAATAAGCTACGATAATCCACTCTTTTTTTGCCCCTTTTTTGCCCCTTTTGCAGCGTTTTGCCCCATTTTTGCCACCGAAAAAAATTCCAAA (double strand) [AttR] | binds
CTATATGCCTTTGATGCGGAGGAATGAATGTGATGGGAGTGATGTATCTGAATAGTTGAAAAACCGCAGTCACGTCGTATGCAAGAACGTGCTGCGGTTGGTTTGACTTTGATTGAGACGTTTTGGAATTTTTTTCGGTGGCAAAAATGGGGCAAAACGCTGCAAAAGGGGCAAAAAAGGGGCAAAAAAAGAGTGGATTATCGTAGCTTATTGTTGTCGCTGATGATATTTAACACATTGAAAAATAAGTAAAATACTTATGAGTCAGAGAGTTGTGATTTTTGCCCTTAC (double strand) [AttM] | no binding
